{
  "source": "patent US20140223606",
  "about": "“COMPOSITIONS AND METHODS COMPRISING SEQUENCES HAVING MEGANUCLEASE ACTIVITY” (PIONEER HI BRED INTERNATIONAL INC, published 2014)",
  "binders": {"B1": {"name": "ZM6.22v2 recognition site (dsDNA)", "DNA 1": "ATTGCTCTCTCACATACTTTTA", "DNA 2": "TAAAAGTATGTGAGAGAGCAAT"}},
  "assay_in_all_cases": "cell_activity; yeast 37 C; 30 C: 0",
  "details_in_all_cases": "tags: NLS, 6xHis",
  "key": {"[1]": {"target": "T1, ZM6.22v2(I3) (artificial)", "T1 chain": "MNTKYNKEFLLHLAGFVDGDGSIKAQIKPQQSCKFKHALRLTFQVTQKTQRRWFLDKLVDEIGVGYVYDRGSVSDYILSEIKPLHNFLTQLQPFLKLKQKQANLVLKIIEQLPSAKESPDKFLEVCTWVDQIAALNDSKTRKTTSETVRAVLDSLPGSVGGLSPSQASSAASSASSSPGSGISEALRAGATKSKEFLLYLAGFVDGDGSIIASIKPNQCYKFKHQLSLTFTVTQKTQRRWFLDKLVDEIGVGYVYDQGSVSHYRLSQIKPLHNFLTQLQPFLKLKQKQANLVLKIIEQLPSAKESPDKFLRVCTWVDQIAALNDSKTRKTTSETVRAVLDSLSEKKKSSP", "description": "(§1) A 3 mL culture of selective media (MP Biomedical) was inoculated with a single colony of the yeast screening strain and grown at 30° C. overnight. On the following day, a 50 ml YPD culture (MP Biomedical) was started with 2 ml of the overnight culture and grown at 30° C. overnight. On the following day, the cells were harvested by centrifugation at 4000 rpm. The cells were resuspended in 100 ml ice cold water and centrifuged again. The cells were then washed in 1.2 M sorbitol, followed by treatment with 2 ml of 10 mM Tris pH 8.0, 1 mM EDTA, 100 mM Lithium acetate, 10 mM DTT, 0.6M sorbitol for 30 minutes at 30° C. with shaking. The cells were recovered by centrifugation, washed in 40 ml 1.2M sorbitol and finally resuspended in 250 microliters of 1.2M sorbitol. 50 microliter aliquots were transferred to test tubes on ice. Up to 5 microliters of DNA (100-500 nanograms) were added. The suspension was transferred to a 0.2 cm electroporation cuvette, on ice. Electroporation was performed with a pulse charge at 1.5 kV, 200 ohms, 25 microF (pulse time of 5 milliseconds). 1 mL YPD media (MP Biomedical) was added and the cells were allowed to recover at 30° C. for 1-2 hr. The cells were centrifuged, resuspended in 100 uL 1M sorbitol and plated on selective media lacking leucine and containing 2% galactose. The resulting yeast colonies were incubated at various temperatures ranging from 22 to 37 degrees Celsius for 7-10 days. I-CreI and meganucleases derived from it have maximal activity at or above 37 degrees Celsius. Screening was performed at a range of temperatures from 22 to 37 degrees in order to observe increases in activity at lower temperatures which are relevant to certain biological systems (eg. plant cells, plant cell cultures, etc). At that time the red/white sectoring phenotype, indicative of meganuclease activity was observed. Colonies with increased white sectoring over the parental meganuclease (indicating colonies expressing a meganuclease with increased meganuclease activity), also referred to as “hits” and sometimes completely white, were isolated for further analysis.\n(§2) A total of 13 ZM6.22v2 variants with increased activity were confirmed in the yeast system (as described in Example 6). Increased activity was observed across a range of temperatures: 28 degrees Celsius, 30 degrees Celsius and 37 degrees Celsius, as shown in Table 16."}, "[2]": {"target": "T2, ZM6.22v2 (artificial)", "T2 chain": "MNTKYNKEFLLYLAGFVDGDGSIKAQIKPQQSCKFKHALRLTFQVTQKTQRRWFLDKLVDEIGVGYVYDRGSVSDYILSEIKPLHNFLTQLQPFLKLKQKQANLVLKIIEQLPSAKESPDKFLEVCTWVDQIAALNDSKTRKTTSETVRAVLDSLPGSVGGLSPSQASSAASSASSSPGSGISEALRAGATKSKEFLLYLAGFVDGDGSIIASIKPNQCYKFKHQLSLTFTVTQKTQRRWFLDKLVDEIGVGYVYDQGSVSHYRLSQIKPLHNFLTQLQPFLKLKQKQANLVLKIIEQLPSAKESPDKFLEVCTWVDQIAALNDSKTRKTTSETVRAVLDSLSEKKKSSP", "description": "as §1, §2"}, "[3]": {"target": "T3, ZM6.22v2(I9) (artificial)", "T3 chain": "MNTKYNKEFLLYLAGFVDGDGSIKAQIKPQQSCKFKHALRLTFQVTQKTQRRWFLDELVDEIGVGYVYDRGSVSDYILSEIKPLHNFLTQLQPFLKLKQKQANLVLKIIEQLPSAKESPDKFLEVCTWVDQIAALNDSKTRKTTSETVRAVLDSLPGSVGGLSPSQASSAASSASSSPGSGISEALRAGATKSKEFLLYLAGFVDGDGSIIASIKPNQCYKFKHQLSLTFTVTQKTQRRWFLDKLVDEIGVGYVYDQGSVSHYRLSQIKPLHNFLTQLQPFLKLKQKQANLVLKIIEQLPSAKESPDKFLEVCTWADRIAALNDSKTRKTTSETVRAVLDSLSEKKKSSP", "description": "as §1, §2"}, "[4]": {"target": "T4, ZM6.22v2(I4) (artificial)", "T4 chain": "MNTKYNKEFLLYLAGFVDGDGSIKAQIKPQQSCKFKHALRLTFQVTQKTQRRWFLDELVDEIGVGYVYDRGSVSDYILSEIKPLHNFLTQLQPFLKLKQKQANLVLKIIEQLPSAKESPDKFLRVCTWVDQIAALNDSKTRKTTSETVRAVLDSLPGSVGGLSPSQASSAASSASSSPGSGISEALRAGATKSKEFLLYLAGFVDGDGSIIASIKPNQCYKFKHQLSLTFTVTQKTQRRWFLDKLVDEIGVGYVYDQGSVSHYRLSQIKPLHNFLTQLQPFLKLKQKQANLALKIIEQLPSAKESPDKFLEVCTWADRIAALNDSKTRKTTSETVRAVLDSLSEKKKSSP", "description": "as §1, §2"}, "[5]": {"target": "T5, ZM6.22v2(I7) (artificial)", "T5 chain": "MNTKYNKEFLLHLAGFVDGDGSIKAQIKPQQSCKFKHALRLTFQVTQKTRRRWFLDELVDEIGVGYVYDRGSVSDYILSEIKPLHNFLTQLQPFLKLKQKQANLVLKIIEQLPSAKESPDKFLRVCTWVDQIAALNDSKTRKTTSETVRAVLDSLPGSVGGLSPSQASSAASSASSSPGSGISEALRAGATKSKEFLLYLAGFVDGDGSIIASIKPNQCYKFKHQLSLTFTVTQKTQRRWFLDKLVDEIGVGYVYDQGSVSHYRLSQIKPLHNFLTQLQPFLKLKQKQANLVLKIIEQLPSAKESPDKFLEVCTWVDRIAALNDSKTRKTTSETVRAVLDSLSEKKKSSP", "description": "as §1, §2"}},
  "data": [
    {"binder": "B1", "values": [
      {"measurement": "activity", "setting": "[1]", "value": 2, "unit": "score 0-4"},
      {"measurement": "activity", "setting": "[2]", "value": 1, "unit": "score 0-4"},
      {"measurement": "activity", "setting": "[3]", "value": 2, "unit": "score 0-4"},
      {"measurement": "activity", "setting": "[4]", "value": 3, "unit": "score 0-4"},
      {"measurement": "activity", "setting": "[5]", "value": 2, "unit": "score 0-4"}
    ]}
  ]
}
